How the values were obtained:
[1] = molecular target: T1, PABPC (PABPC1 RRM1-4) (Homo sapiens, UniProt P11940 1-370); test: EMSA; RNA 10 nM; 1x binding buffer: 100 mM NaCl, 5 mM MgCl2, 0.5 mM EDTA, 0.01% NP-40, 0.1 mg/mL BSA (from 10x stock), 5% glycerol from RNA mix plus glycerol/PBS from protein stock; pH not stated; 15 min at room temperature; 6% native gel with 0.01% Triton X-100 at 4 C; conditions: protein: commercial; tags: N-terminal 6xHis-SUMO; label: 3' Cy5
[2] = molecular target: T1, PABPC (PABPC1 RRM1-4); test: EMSA; RNA 5 nM; 1x binding buffer: 100 mM NaCl, 5 mM MgCl2, 0.5 mM EDTA, 0.01% NP-40, 0.1 mg/mL BSA (from 10x stock), 5% glycerol from RNA mix plus glycerol/PBS from protein stock; pH not stated; 15 min at room temperature; 6% native gel with 0.01% Triton X-100 at 4 C; conditions: protein: commercial; tags: N-terminal 6xHis-SUMO; label: 3' Cy5

T1 sequence (P11940 1-370): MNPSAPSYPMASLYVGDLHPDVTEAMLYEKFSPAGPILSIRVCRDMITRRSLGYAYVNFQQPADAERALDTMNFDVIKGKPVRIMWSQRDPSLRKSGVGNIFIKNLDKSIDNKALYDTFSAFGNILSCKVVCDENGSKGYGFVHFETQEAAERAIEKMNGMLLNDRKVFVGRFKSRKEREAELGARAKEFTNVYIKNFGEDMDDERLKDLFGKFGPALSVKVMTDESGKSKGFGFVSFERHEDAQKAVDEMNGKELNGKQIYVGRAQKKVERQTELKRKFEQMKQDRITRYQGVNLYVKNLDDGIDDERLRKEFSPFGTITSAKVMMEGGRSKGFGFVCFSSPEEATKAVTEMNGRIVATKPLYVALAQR

Binder	Kd [1]	Kd [2]
AAAAAAAAAAAAAAA (ssRNA) [unmodified poly(A)15]	110 nM	
AAAAAAAAAAAAAAA (XNA, 2'-O-methyl and phosphorothioate on the first three nucleotides (mA*mA*mA*A12)) [3NT Mod poly(A)15]		54 nM
AAAAAAAAAAAAAAA (XNA, 2'-O-methyl and phosphorothioate on all 15 nucleotides) [fully modified poly(A)15]		85 nM

From PMC11834087, “Use of polyadenosine tail mimetics to enhance mRNA expression from genes associated with haploinsufficiency disorders”
